What was measured:
[1] = target: T1, pPC86-RXR (Gal4 activation domain fused to full-length human RXRα) (human, UniProt P19793 1-462); assay: yeast two-hybrid, growth on -Leu/-Trp/-His (X-gal staining: White)
T1 construct: also called pPC89RXR
T1 sequence (looked up): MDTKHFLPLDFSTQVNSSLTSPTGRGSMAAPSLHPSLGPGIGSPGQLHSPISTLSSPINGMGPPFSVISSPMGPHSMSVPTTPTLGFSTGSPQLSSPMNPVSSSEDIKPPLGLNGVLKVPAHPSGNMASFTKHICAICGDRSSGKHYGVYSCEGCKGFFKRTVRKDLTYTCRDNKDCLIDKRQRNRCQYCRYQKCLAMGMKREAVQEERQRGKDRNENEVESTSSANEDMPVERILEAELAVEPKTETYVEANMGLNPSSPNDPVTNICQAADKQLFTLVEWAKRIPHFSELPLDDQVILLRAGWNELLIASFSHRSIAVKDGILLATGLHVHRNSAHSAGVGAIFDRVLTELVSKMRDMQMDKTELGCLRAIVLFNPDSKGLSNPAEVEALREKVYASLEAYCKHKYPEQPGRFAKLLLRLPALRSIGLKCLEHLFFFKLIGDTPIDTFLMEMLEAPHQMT

[2] = target: T2, VP16-NuIP (HSV VP16 activation domain fused to full-length NuIP) (mouse, UniProt Q8BPQ7 1-1093); assay: mammalian two-hybrid, luciferase reporter, MN9D cells
T2 construct: also called pVP16NuIP
T2 sequence: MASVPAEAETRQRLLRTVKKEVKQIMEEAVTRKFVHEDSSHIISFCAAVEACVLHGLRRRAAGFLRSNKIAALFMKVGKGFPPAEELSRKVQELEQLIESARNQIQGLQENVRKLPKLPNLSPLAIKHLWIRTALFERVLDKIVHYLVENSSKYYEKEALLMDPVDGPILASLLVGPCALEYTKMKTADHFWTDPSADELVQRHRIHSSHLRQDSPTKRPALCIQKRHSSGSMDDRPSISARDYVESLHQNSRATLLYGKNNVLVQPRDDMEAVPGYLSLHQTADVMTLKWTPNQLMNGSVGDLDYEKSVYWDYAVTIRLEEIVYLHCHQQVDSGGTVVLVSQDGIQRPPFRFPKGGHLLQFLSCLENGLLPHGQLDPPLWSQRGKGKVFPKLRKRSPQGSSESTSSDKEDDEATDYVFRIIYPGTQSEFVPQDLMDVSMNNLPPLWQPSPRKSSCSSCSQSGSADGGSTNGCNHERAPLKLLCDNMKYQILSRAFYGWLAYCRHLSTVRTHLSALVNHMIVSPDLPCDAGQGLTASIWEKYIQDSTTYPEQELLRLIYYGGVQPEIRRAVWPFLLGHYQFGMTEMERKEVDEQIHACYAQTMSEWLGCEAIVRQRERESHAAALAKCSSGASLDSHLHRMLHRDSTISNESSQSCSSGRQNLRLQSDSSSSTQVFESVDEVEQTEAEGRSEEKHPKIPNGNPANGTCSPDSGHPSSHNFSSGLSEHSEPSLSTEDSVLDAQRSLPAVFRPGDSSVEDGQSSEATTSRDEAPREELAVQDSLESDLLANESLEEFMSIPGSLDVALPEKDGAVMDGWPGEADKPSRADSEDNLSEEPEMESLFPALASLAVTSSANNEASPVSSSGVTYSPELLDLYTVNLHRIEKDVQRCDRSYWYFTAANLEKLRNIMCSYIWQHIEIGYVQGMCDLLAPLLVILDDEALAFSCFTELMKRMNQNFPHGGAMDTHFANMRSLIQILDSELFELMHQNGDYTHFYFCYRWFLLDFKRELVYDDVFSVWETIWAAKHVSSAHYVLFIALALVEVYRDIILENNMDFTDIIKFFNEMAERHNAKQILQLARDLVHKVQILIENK

[3] = target: T3, Gal4NLBD589A (Gal4 DNA-binding domain fused to the Nurr1 ligand binding domain with alanine for aspartic acid … (UniProt P04386 1-147)); assay: yeast two-hybrid, empty prey vector control, growth on -Leu/-Trp/-His (X-gal staining: White)
T3 construct: also called pPC97-NLBD589A; pPC97NLBD589A

Binder | binding result [1] | binding result [2] | binding result [3]
Gal4NLBDΔ583 (Gal4 DNA-binding domain fused to the Nurr1 ligand binding domain with the AF2 domain deleted) (other, Used under the same name as yeast bait (pPC97) and in the mammalian two-hybrid assay in MN9D cells; also called Gal4NLDBA583; Gal4NLBDp583) DPSPPSPPVSLISALVRAHVDSNPAMTSLDYSRFQANPDYQMSGDDTQHIQQFYDLLTGSMEIIRGWAEKIPGFADLPKADQDLLFESAFLELFVLRLAYRSNPVEGKLIFCNGVVLHRLQCVRGFGEWIDSIVEFSSNLQNMNIDISAFSCIAALAMVTERHGLKEPKRVEELQNKIVNCLKDHVTFNNGGLNRPNYLSKLLGKLPELRTLCTQGLQRIFYLKLEDLVP | no binding | binds | –
Gal4 activation domain alone (empty pPC86 vector) (other, UniProt P04386 768-881, looked up, Empty prey vector control in yeast two-hybrid; also called pPC89) ANFNQSGNIADSSLSFTFTNSSNGPNLITTQTNSQALSQPIASSNVHDNFMNNEITASKIDDGNNSKPLSPGWTDQTAYNAFGITTGMFNTTTMDDVYNYLFDDEDTPPNPKKE | – | – | no binding

Source: patent publication US20110268748A1 (UNIVERSITY OF ROCHESTER, published 2011)
